Source: article PMC2948018, “Identification of Thioaptamer Ligand against E-Selectin: Potential Application for Inflamed Vasculature Targeting”

Legend:
Test in all cases: EMSA; 5 mM Mg2+, Ca2+; EMSA: PBS with Ca2+ and Mg2+, 5 mM MgCl2, 1% NP40, room temperature 45 min, 4.6 pmol ESTA-1 with 0-19 pmol selectin in 10.5 ul, 6% gel run at 4 C; cell binding: 20 min at 37 C; pH not stated
[1] = biological target: T1, L-selectin (UniProt P14151 39-332); details: protein: recombinant; label: none in EMSA (SYBR Gold stain); two hairpin loops (MFOLD)
T1 sequence: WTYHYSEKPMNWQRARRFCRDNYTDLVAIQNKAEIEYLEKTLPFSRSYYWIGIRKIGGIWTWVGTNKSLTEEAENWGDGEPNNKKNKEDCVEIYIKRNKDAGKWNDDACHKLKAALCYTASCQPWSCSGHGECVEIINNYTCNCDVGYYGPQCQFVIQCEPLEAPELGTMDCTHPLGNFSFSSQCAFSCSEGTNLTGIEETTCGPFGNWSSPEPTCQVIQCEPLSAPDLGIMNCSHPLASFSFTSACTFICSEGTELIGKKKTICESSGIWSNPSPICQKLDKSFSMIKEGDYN

[2] = biological target: T2, E-selectin extracellular domain (human, UniProt P16581 22-556); details: protein: commercial; label: none in EMSA (SYBR Gold stain); two hairpin loops (MFOLD)
T2 sequence: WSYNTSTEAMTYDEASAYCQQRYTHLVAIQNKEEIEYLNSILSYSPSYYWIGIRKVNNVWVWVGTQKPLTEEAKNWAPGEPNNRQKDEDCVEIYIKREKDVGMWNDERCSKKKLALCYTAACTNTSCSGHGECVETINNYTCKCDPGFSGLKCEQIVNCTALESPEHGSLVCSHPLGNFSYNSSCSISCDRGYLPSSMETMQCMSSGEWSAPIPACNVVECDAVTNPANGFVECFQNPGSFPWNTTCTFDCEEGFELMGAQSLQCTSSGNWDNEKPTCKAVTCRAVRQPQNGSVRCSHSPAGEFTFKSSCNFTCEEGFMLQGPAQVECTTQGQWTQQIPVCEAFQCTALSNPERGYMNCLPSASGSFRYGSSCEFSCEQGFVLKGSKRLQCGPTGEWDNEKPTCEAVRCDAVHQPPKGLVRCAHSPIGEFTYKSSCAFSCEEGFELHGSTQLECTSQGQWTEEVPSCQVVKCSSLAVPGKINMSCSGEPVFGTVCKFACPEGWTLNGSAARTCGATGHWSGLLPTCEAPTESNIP

[3] = biological target: P-selectin (UniProt P16109 42-771); details: protein: recombinant; label: none in EMSA (SYBR Gold stain); two hairpin loops (MFOLD)
Sequence of P-selectin (P16109 42-771): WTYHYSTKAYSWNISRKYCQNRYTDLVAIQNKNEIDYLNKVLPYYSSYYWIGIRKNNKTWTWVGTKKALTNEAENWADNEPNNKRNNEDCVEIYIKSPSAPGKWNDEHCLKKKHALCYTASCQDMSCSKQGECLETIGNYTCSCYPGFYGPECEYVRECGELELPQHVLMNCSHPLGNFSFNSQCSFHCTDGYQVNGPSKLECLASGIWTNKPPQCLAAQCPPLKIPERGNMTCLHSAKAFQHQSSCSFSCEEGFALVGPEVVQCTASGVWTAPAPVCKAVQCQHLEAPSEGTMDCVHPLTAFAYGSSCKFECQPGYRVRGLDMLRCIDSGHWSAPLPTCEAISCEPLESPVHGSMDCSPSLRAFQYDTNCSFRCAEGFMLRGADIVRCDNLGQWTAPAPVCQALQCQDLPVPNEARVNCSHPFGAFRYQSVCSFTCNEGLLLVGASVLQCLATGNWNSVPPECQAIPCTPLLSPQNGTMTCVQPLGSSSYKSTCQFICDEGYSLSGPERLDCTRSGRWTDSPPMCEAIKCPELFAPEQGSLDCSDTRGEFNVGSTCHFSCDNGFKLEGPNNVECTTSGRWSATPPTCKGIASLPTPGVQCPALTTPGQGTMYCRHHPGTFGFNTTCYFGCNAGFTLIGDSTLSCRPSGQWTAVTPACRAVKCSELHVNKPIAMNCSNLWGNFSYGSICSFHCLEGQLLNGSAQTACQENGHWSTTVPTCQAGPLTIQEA

B1: ESTA-1 (TA-1) (XNA)
DNA: CGCTCGGATCGATAAGCTTCGATCCCACTCTCCCGTTCACTTCTCCTCACGTCACGGATCCTCTAGAGCACTG
modifications: monothiophosphate (Rp) at all dA except 5' primer region
[1]
  binding result: no binding
[2]
  Kd: 0.047 µM
[3]
  Kd: ~13 µM
